Experimental findings from article PMC4591219 (Cell reports, 2015) are described below.

Series [1] addresses T1, full-length Pot1 (in the purified Pot1–Tpz1-NTD complex) (S. pombe, UniProt O13988 1-555).
T1 sequence: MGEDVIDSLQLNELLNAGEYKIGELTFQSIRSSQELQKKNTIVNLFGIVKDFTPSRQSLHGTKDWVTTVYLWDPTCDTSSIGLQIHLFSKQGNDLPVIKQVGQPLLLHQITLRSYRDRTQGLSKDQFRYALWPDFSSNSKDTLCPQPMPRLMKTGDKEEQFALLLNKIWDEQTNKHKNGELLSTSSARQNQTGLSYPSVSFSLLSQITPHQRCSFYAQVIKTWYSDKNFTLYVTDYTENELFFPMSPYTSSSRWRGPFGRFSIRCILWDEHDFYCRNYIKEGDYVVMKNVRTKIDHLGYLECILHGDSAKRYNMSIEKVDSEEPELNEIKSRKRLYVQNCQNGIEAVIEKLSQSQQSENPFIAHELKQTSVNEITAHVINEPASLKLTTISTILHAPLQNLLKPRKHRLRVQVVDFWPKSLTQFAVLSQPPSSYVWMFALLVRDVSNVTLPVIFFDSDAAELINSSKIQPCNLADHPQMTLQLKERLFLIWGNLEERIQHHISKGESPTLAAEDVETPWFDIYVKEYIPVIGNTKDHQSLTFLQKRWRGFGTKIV
The series can be described thus: cross-linking.

A further series deals with T2, Ccq1 (130–439) (S. pombe, UniProt Q10432 130-439).
T2 sequence: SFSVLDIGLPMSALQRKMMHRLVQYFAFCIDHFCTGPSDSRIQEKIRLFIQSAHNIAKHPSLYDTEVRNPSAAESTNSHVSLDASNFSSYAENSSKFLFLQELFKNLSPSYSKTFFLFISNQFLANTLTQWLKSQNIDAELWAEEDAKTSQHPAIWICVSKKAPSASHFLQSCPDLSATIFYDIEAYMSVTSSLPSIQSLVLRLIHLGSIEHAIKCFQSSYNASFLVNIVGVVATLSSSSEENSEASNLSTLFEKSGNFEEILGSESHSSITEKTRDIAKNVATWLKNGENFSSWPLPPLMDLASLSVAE
In words: cross-linking.

Series [2] concerns the target T3, full-length Poz1 (in the purified Poz1-Tpz1 complex) (S. pombe, UniProt O13852 1-249).
T3 sequence: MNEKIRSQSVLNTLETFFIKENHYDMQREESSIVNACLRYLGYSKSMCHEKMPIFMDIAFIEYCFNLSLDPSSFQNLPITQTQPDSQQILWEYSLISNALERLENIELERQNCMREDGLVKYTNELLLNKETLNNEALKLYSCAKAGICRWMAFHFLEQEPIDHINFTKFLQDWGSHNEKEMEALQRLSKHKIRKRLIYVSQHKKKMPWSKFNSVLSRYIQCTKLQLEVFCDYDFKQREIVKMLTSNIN
In words: cross-linking.

In a further series the target is T4, Poz1-W209A (recombinant) (S. pombe, UniProt O13852 1-249, W209A).
T4 sequence: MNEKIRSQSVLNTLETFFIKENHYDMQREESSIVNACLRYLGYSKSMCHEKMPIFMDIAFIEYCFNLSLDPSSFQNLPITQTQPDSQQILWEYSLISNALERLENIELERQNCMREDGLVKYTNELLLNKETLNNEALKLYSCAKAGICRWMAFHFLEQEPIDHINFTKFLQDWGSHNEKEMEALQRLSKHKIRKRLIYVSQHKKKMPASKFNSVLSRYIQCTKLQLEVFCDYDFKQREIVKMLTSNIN
In words: pull-down.

The target of another series is T5, Poz1-W174R (recombinant) (S. pombe, UniProt O13852 1-249, W174R).
T5 sequence: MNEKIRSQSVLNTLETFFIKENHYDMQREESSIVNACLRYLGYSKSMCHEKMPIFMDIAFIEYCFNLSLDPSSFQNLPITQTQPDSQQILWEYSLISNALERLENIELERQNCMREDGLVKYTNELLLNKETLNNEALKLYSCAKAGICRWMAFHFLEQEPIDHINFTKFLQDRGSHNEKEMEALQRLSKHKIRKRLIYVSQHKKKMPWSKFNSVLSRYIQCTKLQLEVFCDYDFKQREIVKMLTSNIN
In words: pull-down.

For series [3], the target named is T6, Poz1 (wild type, recombinant, GST pull-down) (S. pombe, UniProt O13852 1-249).
T6 sequence: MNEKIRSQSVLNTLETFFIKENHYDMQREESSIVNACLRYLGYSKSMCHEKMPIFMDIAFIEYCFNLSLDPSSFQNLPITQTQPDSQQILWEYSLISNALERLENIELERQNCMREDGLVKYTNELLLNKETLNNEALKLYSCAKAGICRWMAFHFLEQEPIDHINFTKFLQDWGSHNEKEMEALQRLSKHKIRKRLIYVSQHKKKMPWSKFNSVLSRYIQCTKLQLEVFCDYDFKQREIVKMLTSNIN
In words: pull-down.

A further series deals with T7, Pot1-I453R (Schizosaccharomyces pombe, UniProt O13988 1-555, I453R).
T7 sequence: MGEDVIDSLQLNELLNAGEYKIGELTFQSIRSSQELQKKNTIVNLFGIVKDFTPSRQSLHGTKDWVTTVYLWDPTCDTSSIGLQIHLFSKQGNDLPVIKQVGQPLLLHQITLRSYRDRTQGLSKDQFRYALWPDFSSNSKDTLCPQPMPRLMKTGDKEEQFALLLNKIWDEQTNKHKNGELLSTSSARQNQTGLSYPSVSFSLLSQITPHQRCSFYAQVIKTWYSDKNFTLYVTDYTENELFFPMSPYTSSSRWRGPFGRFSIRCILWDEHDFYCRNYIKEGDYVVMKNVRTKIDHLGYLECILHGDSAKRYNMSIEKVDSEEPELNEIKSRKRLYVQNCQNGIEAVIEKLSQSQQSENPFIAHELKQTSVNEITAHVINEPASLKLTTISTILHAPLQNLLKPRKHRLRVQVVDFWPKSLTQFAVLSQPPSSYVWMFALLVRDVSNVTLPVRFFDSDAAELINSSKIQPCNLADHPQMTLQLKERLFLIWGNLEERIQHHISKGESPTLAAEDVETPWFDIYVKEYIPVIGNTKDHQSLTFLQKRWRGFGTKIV
The series can be described thus: EMSA. In general terms: A gel shift assay detects complexes by their altered migration in electrophoresis.

The next series has as its target T8, Pot1-F520A (Schizosaccharomyces pombe, UniProt O13988 1-555, F520A).
T8 sequence: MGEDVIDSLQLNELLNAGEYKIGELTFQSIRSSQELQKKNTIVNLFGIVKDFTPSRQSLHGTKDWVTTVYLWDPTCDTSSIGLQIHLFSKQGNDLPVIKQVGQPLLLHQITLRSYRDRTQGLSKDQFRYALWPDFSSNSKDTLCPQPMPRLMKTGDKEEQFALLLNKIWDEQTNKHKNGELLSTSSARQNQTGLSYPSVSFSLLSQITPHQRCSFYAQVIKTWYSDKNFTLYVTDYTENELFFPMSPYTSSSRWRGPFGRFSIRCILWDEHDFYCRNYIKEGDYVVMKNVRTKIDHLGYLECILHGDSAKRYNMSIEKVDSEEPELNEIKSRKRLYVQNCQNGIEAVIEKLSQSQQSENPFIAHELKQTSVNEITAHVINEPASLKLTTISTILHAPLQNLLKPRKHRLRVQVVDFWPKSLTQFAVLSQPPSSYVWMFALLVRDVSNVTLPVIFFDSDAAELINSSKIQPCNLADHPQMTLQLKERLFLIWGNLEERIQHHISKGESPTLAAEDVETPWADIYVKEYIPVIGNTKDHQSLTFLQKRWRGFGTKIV
The series can be described thus: EMSA.

Series [4] concerns the target T9, Pot1 (wild type, recombinant, GST pull-down) (S. pombe, UniProt O13988 1-555).
T9 sequence: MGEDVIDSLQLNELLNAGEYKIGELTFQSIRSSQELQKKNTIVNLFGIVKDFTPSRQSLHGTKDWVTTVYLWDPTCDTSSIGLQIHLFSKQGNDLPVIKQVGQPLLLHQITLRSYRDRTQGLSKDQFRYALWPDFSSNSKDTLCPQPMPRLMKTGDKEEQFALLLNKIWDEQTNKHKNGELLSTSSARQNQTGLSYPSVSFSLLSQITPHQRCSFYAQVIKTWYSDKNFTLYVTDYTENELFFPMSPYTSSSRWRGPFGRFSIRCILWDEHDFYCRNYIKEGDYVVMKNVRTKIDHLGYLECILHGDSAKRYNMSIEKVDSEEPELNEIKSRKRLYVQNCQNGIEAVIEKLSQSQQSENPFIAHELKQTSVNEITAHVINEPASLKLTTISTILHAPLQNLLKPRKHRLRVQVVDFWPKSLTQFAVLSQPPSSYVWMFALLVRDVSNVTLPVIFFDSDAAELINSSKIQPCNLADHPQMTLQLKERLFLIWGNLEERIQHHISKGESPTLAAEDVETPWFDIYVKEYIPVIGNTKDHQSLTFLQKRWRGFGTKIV
In words: pull-down.

B1: Tpz1-NTD (1–234) (in the purified Pot1–Tpz1-NTD complex) (domain or fragment)
chain: MSNCLKHPWLENGLLNLIKNADVLPIRVFKCQPLQIFEYIRYEHPIRCKLSDTEFYIEAEFSSQSISDLNNFTEKRITSLRGGIVTLGNFLIHLIPSQSGIIPWIQVESFNFQGCEGAVFGNPKAITTSALFNALLQSPYLAALANEFNRSIKEGSSYQEASLSQQEKPNDNTSNSRDIKNNIQFHWKNMTSLSIEECIIPKGQQLILEKESEENTTHGIYLEERKMAQGLHNS
For B1, the binding result in series [1] is “binds”.
On to AINFTSDICNEQIELEYKRKPIPDYDFMKGLETTLQELYVEHQS (domain or fragment) [Tpz1 (415–458)], for which, in the series with Ccq1 (130–439), the binding result was “binds”.

B2: Tpz1 (406–508) (in the purified Poz1-Tpz1 complex) (domain or fragment)
chain: SSVISCTPPAINFTSDICNEQIELEYKRKPIPDYDFMKGLETTLQELYVEHQSKKRRLELFQLTNNHQKNSEACEMCRLGLPHGSFFELLRDWKKIEEFRNKS
Consider B2, for which, in [2], the binding result is “binds”.

B3: GST-Tpz1-CTD (406–508) (domain or fragment)
chain: SSVISCTPPAINFTSDICNEQIELEYKRKPIPDYDFMKGLETTLQELYVEHQSKKRRLELFQLTNNHQKNSEACEMCRLGLPHGSFFELLRDWKKIEEFRNKS
On to B3, for which the binding result (with Poz1-W209A (recombinant); with Poz1-W174R (recombinant); in [3]) was “binds” throughout.
Turning to GTTACGGTTACAGGTTACG (ssDNA) [telomeric ssDNA 19-mer], the binding result with Pot1-I453R and in the series with Pot1-F520A was “binds” each time.

B4: GST-Tpz1-NTD (2–234) (domain or fragment)
chain: SNCLKHPWLENGLLNLIKNADVLPIRVFKCQPLQIFEYIRYEHPIRCKLSDTEFYIEAEFSSQSISDLNNFTEKRITSLRGGIVTLGNFLIHLIPSQSGIIPWIQVESFNFQGCEGAVFGNPKAITTSALFNALLQSPYLAALANEFNRSIKEGSSYQEASLSQQEKPNDNTSNSRDIKNNIQFHWKNMTSLSIEECIIPKGQQLILEKESEENTTHGIYLEERKMAQGLHNS
Consider B4, for which the binding result in [4] was “binds”.
